Experimental findings from patent US20200031866A1, “PEPTIDE INHIBITORS OF SODIUM CHANNELS” (SPYRYX BIOSCIENCES, INC., priority 2016, published 2020) are described below.

Entries after “also recorded” stand apart in the source; their conditions may differ. Square brackets hold non-standard residues; d marks the D form. Ends that are not written are not given here. Peptide text beside a SMILES is read from it. Nle = CCCC[C@H](N)C(=O)O

One test deals with T1, ENaC (Homo sapiens, UniProt P37088+P51168+P51170).
T1 construct: Peptides were added mucosally to HBECs at 30 μM and ASL height measured 3 h later by XZ-confocal microscopy; endogenous in cells; host or cells: primary human bronchial epithelial cultures (HBECs) at air-liquid interface
T1 sequence (P37088 1-669): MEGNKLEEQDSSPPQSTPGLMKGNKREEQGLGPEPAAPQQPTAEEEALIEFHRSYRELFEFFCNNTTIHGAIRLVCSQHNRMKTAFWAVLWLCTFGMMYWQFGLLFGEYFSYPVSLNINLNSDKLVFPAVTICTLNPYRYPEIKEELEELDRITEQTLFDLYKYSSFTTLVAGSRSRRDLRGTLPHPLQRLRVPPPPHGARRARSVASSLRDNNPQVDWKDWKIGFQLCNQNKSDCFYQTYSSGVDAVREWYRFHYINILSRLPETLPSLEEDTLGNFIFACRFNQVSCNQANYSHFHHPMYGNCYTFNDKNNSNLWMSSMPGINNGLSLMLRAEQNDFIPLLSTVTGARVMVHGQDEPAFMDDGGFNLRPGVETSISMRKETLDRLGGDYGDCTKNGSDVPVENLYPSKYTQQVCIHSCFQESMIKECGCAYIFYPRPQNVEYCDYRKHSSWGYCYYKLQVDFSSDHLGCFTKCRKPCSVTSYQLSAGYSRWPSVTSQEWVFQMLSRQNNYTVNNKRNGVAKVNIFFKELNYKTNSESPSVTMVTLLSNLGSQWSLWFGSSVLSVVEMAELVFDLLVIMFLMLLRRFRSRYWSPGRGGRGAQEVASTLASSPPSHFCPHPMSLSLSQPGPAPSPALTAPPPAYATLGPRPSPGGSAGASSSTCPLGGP
T1 sequence (P51168 1-640): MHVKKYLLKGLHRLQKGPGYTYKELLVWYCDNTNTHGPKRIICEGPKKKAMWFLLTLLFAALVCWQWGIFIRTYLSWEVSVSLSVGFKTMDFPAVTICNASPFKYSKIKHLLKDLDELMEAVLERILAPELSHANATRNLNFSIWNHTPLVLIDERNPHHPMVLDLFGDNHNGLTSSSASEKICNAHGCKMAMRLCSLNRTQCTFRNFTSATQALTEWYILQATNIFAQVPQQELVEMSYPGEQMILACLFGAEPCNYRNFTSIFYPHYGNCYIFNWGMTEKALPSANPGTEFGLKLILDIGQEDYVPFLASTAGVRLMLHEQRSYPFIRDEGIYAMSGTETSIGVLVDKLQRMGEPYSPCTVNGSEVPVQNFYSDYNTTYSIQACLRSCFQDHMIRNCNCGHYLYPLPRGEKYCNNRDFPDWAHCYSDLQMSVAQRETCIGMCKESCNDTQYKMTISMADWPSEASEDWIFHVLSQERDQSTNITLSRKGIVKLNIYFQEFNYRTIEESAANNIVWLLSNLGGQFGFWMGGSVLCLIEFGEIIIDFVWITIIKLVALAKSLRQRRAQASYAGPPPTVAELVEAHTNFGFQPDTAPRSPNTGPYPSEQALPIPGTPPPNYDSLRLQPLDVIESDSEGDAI
T1 sequence (P51170 1-649): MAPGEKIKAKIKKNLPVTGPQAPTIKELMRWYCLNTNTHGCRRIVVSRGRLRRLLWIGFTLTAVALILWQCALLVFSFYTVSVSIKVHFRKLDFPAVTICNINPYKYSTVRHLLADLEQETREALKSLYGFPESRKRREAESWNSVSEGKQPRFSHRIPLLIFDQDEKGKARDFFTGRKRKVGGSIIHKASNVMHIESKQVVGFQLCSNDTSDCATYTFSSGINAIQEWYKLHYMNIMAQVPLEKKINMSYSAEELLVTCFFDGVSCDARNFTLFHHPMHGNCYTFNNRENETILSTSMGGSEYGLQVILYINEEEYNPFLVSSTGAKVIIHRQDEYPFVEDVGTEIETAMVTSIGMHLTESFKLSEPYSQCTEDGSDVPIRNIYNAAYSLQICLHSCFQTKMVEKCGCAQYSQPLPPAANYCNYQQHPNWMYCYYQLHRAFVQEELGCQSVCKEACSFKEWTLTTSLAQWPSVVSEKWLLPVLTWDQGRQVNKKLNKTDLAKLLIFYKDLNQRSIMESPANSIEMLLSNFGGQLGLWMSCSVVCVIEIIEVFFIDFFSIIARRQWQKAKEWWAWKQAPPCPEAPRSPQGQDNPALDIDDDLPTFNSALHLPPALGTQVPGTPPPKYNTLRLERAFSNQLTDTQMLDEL
Kind of test: Airway surface liquid (ASL) height in human bronchial epithelial cultures by XZ-confocal microscopy. The settings on record: FIGS. 3A, 3B; for potency compared to S18 (dose response): 4. The format is cell-based.

In another test the target is T2, alpha-ENaC (Homo sapiens, UniProt P37088+P51168+P51170).
T2 construct: expressed in transfected cells; host or cells: HEK293T
T2 sequence (P37088 1-669): T1 sequence (P37088 1-669)
T2 sequence (P51168 1-640): T1 sequence (P51168 1-640)
T2 sequence (P51170 1-649): T1 sequence (P51170 1-649)
Kind of test: Internalization of alpha-ENaC in HEK293T cells, GFP-tagged alpha-ENaC co-expressed with beta and gamma ENaC. Format: cell-based. Conditions: beta-ENaC co-expressed, FIGS. 5A-5U. From the text: HEK293T cells were transfected with gfp-αENaC where gfp was fused at the N-terminus of ENaC and unlabeled βENaC and γENaC using lipofectamine in 384 well plates as per the manufacturer's instructions and as published previously (see, e.g., Hobbs et al. Am J Physiol Lung Cell Mol Physiol. 2013 December; 305(12):L990-L1001. doi: 10.1152/ajplung.00103.2013. Epub 2013 October; Garland et al. Proc Natl Acad Sci USA. 2013 Oct. 1; 110(40):15973-8. doi: 10.1073/pnas.1311999110. Epub 2013 Sep. 16.; Tan et al. J Physiol. 2014 Dec. 1; 592(Pt 23):5251-68). Twenty-four hours later, peptide or vehicle control were added at t=0 and fluorescence was read using a Tecan M1000 plate reader 3 h later. Fluorescence was read at 488 nm (excitation)/510 nm (emission).

For a further test, the system named is βENaC-Tg mice. Format: in vivo. Conditions: βENaC-Tg C57BL:C3H mice, fourteen-day treatment; FIGS. 7C, 7D, 7F. From the text:
Like CF patients, βENaC-Tg mice are disease free at birth, but soon develop obstructive lung disease (Zhou, Z., et al. Am J Respir Crit Care Med 178, 1245-1256 (2008)). C57BL:FVB and C57BL:C3H mixed strains have 90% and 50% mortality, respectively, and the reproducibility of the disease on these backgrounds is sufficiently high that reliable data are produced with n of about 8-10 animals/group. Furthermore, the βENaC-Tg mouse responds to therapeutic interventions in a fashion similar to CF/COPD in humans, and the development of lung disease can be prevented following inhibition of lung disease at birth (Livraghi, A., et al. J Immunol 182, 4357-4367 (2009)). S18-derived peptides or vehicle were dosed one to three times a day by intranasal instillation (1 μl/g body weight) for 14 days in parallel cohorts of mice. Mice were weighed daily and, if a diuretic effect was found, the volume excreted was replaced by sub-cutaneous injections of sterile saline. At the end of the treatment, mice were sacrificed for phenotypic analysis.

With `CCCC[C@H](NC(=O)[C@@H]1CCCN1C(=O)[C@H](CC(C)C)NC(=O)[C@@H](C)NC(=O)[C@@H](C)N)C(=O)N1CCC[C@H]1C(=O)N[C@@H](CC(C)C)C(=O)N[C@@H](CC(=O)O)C(=O)N[C@@H](CCC(N)=O)C(=O)N[C@H](C(=O)N[C@H](C)C(=O)N[C@H](C)C(N)=O)[C@@H](C)O` [SEQ ID NO:5, aaLPNlePLDQTaa] (H-[dA][dA]LP[Nle]PLDQT[dA][dA]-NH2; N-terminus assumed), at ENaC, the “potency compared to S18 (dose response)” value is recorded as “log-fold increase in potency; also recorded: significant increase in potency; also recorded: increased potency”.

In the case of `N=C(N)NC(=O)c1nc(Cl)c(N)nc1N` [amiloride], the “reduction of alpha-ENaC / functional receptor on the cell surface” value on alpha-ENaC is on record as “does not reduce the amount of functional receptor on the surface of cells”.

“SEQ ID NO:127: NH3-LPIPLDQT-NH2 (H-LPIPLDQT-NH2)”: the percent survival result with βENaC-Tg mice is reported as “increased percent survival”.

For “aaLPVPLDQSaa ([dA][dA]LPVPLDQS[dA][dA]-NH2; N-terminus assumed; SMILES CC(C)C[C@H](NC(=O)[C@@H]1CCCN1C(=O)[C@@H](NC(=O)[C@@H]1CCCN1C(=O)[C@H](CC(C)C)NC(=O)[C@@H](C)NC(=O)[C@@H](C)N)C(C)C)C(=O)N[C@@H](CC(=O)O)C(=O)N[C@@H](CCC(N)=O)C(=O)N[C@@H](CO)C(=O)N[C@H](C)C(=O)N[C@H](C)C(N)=O) [SEQ ID NO:9]”, the “potency compared to S18 (dose response)” value with ENaC was “diminished”.

With “aaLPVPLDQTLPLNVNPaa ([dA][dA]LPVPLDQTLPLNVNP[dA][dA]-NH2; N-terminus assumed; SMILES CC(C)C[C@H](NC(=O)[C@@H]1CCCN1C(=O)[C@H](CC(C)C)NC(=O)[C@@H](NC(=O)[C@H](CCC(N)=O)NC(=O)[C@H](CC(=O)O)NC(=O)[C@H](CC(C)C)NC(=O)[C@@H]1CCCN1C(=O)[C@@H](NC(=O)[C@@H]1CCCN1C(=O)[C@H](CC(C)C)NC(=O)[C@@H](C)NC(=O)[C@@H](C)N)C(C)C)[C@@H](C)O)C(=O)N[C@@H](CC(N)=O)C(=O)N[C@H](C(=O)N[C@@H](CC(N)=O)C(=O)N1CCC[C@H]1C(=O)N[C@H](C)C(=O)N[C@H](C)C(N)=O)C(C)C) [SEQ ID NO:2, a = D-alanine]”, in the test with ENaC, the “efficacy compared to S18 (dose response)” value is on record as “equal” and the “potency compared to S18 (dose response)” value is recorded as “equal”.

With “aaLPVPLDQTaa ([dA][dA]LPVPLDQT[dA][dA]-NH2; N-terminus assumed; SMILES CC(C)C[C@H](NC(=O)[C@@H]1CCCN1C(=O)[C@@H](NC(=O)[C@@H]1CCCN1C(=O)[C@H](CC(C)C)NC(=O)[C@@H](C)NC(=O)[C@@H](C)N)C(C)C)C(=O)N[C@@H](CC(=O)O)C(=O)N[C@@H](CCC(N)=O)C(=O)N[C@H](C(=O)N[C@H](C)C(=O)N[C@H](C)C(N)=O)[C@@H](C)O) [SEQ ID NO:3, a = D-alanine]”, in the test with ENaC, the “efficacy compared to S18 (dose response)” value is listed as “identical dose responses; also recorded: equal” and the “potency compared to S18 (dose response)” value is given as “identical dose responses; also recorded: equal”.

In the case of aaLPVPNleDQTaa [SEQ ID NO:6], at ENaC, the “efficacy compared to S18 (dose response)” value is listed as “diminished”.
